Measurements published in PMC10465538.
Numbering of substitutions follows the chain as printed. Names and notes keep the numbering of the source.

B1: CglPafA K106R, K172R, K302R (proteasome accessory factor A from Corynebacterium glutamicum) (enzyme)
chain: STVESALTRRIMGIETEYGLTFVDGDSKKLRPDEIARRMFRPIVEKYSSSNIFIPNGSRLYLDVGSHPEYATAECDNLTQLINFEKAGDVIADRMAVDAEESLAREDIAGQVYLFKNNVDSVGNSYGCHENYLVGRSMPLKALGKRLMPFLITRQLICGAGRIHHPNPLDRGESFPLGYCISQRSDHVWEGVSSATTRSRPIINTRDEPHADSHSYRRLHVIVGDANMAEPSIALKVGSTLLVLEMIEADFGLPSLELANDIASIREISRDATGSTLLSLKDGTTMTALQIQQVVFEHASRWLEQRPEPEFSGTSNTEMARVLDLWGRMLKAIESGDFSEVDTEIDWVIKKKLIDRFIQRGNLGLDDPKLAQVDLTYHDIRPGRGLFSVLQSRGMIKRWTTDEAILAAVDTAPDTTRAHLRGRILKAADTLGVPVTVDWMRHKVNRPEPQSVELGDPFSAVNSEVDQLIEYMTVHAESYRS
B2: PafA R442A (enzyme)
chain: B1 chain with R441A
B3: PafA R137A (enzyme)
chain: B1 chain with R136A
B4: PafA site 3 alanine double mutant (R442A, K444A) (enzyme)
chain: B1 chain with R441A, K443A
B5: PafA R218A (enzyme)
chain: B1 chain with R217A
B6: PafA K444A (enzyme)
chain: B1 chain with K443A
B7: PafA R137A, R218A (enzyme)
chain: B1 chain with R136A, R217A
B8: PafA site 2 triple alanine variant (R137A/R207A/R218A) (enzyme)
chain: B1 chain with R136A, R206A, R217A
B9: PafA R207A (enzyme)
chain: B1 chain with R206A

Biological target: MtbFabD3KR-Strep (malonyl CoA-acyl carrier protein transacylase variant that lacks secondary pupylation sites) (Mycobacterium tuberculosis) (UniProt P9WNG5)

Binder | App. initial pupylation rate (in vitro pupylation of FabD, SDS-PAGE densitometry) [h⁻¹]
B1 | 10.4
B2 | 2.87
B3 | 3.1
B4 | 2.64
B5 | 5.05
B6 | 2.65
B7 | 0.17

Biological target: MtbPanB-Strep (ketopantoate hydroxymethyltransferase) (Mycobacterium tuberculosis) (UniProt P9WIL7)

Binder | in vitro pupylation of PanB, reduction against PafA (gel densitometry) [% reduction]
B8 | 70

Biological target: MtbPanB-Strep (ketopantoate hydroxymethyltransferase) (Mycobacterium tuberculosis) (UniProt P9WIL7)
Remark: another data set of the same source

Binder | in vitro pupylation of PanB, reduction against PafA (gel densitometry) [% reduction]
B9 | 50
